Source: patent US5972698 (Novartis Corporation, dated 1999)

Target: bovine trypsin (bovine, UniProt P00760)
Experiment: equilibrium dissociation constants (Ki) from enzyme inhibition

binding result: binds
B1: recombinant leech-derived tryptase inhibitor form C, secreted by Saccharomyces cerevisiae (strain S-78 with pRM 9.1.4) (other)
chain: KKVCACPKILKPVCGSDGRTYANSCIARCNGVSIKSEGSCPTGILN
